Here are results for two substances from patent EP1086224B1.

For experiment [1], the target named is cell-surface HLA-A1 on Hmy2.C1R-A1 transfectants with ornithine decarboxylase 309-317 (OD 309) peptide (human). Nature of the experiment: competition with 2.5 µM myc-hβ2m on Hmy2.C1R-A1 cells with OD 309 peptide, 9E10 anti-myc, flow cytometry.
The target in experiment [2] is cell-surface HLA-A3 on Hmy2.C1R-A3 transfectants with pn2a.A3 peptide (human).
The target in experiment [3] is cell-surface HLA-A2 on Hmy2.C1R-A2 transfectants with HIV gag 77-85 peptide (human; HIV), A*02:0.
Experiment [4] deals with cell-surface HLA-A1 on Hmy2.C1R-A1 transfectants with ornithine decarboxylase 309-317 (OD 309) peptide (human). Nature of the experiment: HLA stabilization assay, acid-stripped Hmy2.C1R-A1 cells with OD 309 peptide and BB7.5 mAb, flow cytometry.
Experiment [5] deals with cell-surface HLA-A2 on Hmy2.C1R-A2 target cells with HTLV-1 TAX 11-19 peptide (human; HTLV-1), A*02:0. The experiment is described as follows: cell-based or functional assay.
Experiment [6] has as its target cell-surface HLA-A3 on Hmy2.C1R-A3 transfectants with pn2a.A3 peptide (human). This is another data set of the same source.

Turning to “hβ2m S55V (human β2-microglobulin with valine at position 55) (from UniProt P61769 21-119)”, the fold better inhibition of myc-hβ2m binding than wild-type hβ2m at a molar level in experiment [1], in experiment [2] and in experiment [3] was 2.5 fold throughout. In addition, the fold better stabilization than wild-type hβ2m at a molar level was 2 fold in experiment [4] and 3 fold in experiment [6]. The enhancement of target cell lysis, fold more effective at a molar level than wild-type hβ2m in experiment [5] was determined as 4 fold.

Consider “wild-type human β2-microglobulin (hβ2m), recombinant (from UniProt P61769 21-119)”, for which the hβ2m concentration giving maximal lysis by the TAX-specific CTL clone in experiment [5] worked out at 8 µM.
